From PMC4715182, “Structure of a Chaperone-Usher Pilus Reveals the Molecular Basis of Rod Uncoiling” (Cell, 2016)
Several values for one entry are separate records, joined by “and”; a condition that tells them apart may be missing. Equal values may be shown once.

What was measured:
[1] = target: T1, PapA Gln106AzF, P04127; test: pilus rod formation quantified by Sypro Ruby signal after ultracentrifugation; settings: chain shown with the change;; parent: est. 100; read off a plot
T1 chain: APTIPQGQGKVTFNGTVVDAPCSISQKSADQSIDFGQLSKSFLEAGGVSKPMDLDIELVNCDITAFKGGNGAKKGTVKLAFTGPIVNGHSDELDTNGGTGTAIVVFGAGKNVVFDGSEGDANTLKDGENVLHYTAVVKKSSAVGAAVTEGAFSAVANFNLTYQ

[2] = target: T2, PapA Val143AzF, P04127; test: as above; settings: chain shown with the change;; parent: est. 100; read off a plot
T2 chain: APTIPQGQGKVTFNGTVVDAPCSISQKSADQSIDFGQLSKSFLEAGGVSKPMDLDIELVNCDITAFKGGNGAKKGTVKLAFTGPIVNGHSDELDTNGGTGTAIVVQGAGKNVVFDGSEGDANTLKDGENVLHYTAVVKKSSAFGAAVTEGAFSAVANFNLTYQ

[3] = target: T3, PapA Val18AzF, P04127; test: as above; settings: chain shown with the change;; parent: est. 100; read off a plot
T3 chain: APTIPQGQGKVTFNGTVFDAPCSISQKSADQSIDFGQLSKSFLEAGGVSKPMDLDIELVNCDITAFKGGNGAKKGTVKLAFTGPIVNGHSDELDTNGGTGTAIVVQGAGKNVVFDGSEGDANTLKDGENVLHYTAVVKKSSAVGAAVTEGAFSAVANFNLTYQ

[4] = target: T4, PapA Lys50AzF, P04127; test: as above; settings: chain shown with the change;; parent: est. 100; read off a plot
T4 chain: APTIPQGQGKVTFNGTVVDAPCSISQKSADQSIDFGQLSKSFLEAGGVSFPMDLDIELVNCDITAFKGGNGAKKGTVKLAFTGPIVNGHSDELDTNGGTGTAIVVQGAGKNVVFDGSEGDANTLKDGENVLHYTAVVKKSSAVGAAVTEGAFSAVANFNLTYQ

[5] = target: the molecule itself; test: in vitro rod formation (pelleting by ultracentrifugation, negative stain EM, Sypro Ruby signal); purified PapD:PapA complexes at 50 μM, 20°C, 72 hr; four rounds of ultracentrifugation at 57,000 x g; 20 mM Tris (pH 7.5), 150 mM NaCl
[6] = target: the molecule itself; test: SEC; purified PapDHis:PapA left to polymerize at 20°C for 16 hr at 38 μM; Superdex 200 10/300 increase; donor-strand exchange (DSE) products
[7] = target: T5, PapA Val155AzF, P04127; test: pilus rod formation quantified by Sypro Ruby signal after ultracentrifugation; settings: chain shown with the change;; parent: est. 100; read off a plot
T5 chain: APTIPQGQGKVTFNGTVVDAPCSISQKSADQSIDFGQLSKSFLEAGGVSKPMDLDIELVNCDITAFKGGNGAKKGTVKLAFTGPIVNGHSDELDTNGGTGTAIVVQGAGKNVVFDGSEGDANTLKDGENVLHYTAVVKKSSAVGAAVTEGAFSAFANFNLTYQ

[8] = target: T6, PapA Thr76AzF, P04127; test: as above; settings: chain shown with the change;; parent: est. 100; read off a plot
T6 chain: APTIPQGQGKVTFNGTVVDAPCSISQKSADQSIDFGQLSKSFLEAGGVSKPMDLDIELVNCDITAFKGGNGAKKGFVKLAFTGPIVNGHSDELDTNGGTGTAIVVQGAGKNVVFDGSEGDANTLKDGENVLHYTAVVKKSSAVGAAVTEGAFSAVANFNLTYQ

[9] = target: T7, PapA Lys27AzF, P04127; test: as above; settings: chain shown with the change;; parent: est. 100; read off a plot
T7 chain: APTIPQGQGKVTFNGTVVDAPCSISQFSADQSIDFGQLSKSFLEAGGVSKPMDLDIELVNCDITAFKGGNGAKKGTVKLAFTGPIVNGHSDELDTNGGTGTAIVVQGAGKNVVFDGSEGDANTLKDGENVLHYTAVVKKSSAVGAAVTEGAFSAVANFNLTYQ

[10] = target: the molecule itself; test: SEC-MALS; sample of PapD:PapA Val18AzF; Superdex 200 10/300 increase; molecular weight of each peak

B1: PapA wild-type, P04127 Q106AzF (protein)
chain: APTIPQGQGKVTFNGTVVDAPCSISQKSADQSIDFGQLSKSFLEAGGVSKPMDLDIELVNCDITAFKGGNGAKKGTVKLAFTGPIVNGHSDELDTNGGTGTAIVVFGAGKNVVFDGSEGDANTLKDGENVLHYTAVVKKSSAVGAAVTEGAFSAVANFNLTYQ
**Q.** Which percent of parent (% of wild-type Sypro Ruby signal) [1] does the source give for B1 here?
**A.** 93

B2: PapA wild-type, P04127 V143AzF (protein)
chain: APTIPQGQGKVTFNGTVVDAPCSISQKSADQSIDFGQLSKSFLEAGGVSKPMDLDIELVNCDITAFKGGNGAKKGTVKLAFTGPIVNGHSDELDTNGGTGTAIVVQGAGKNVVFDGSEGDANTLKDGENVLHYTAVVKKSSAFGAAVTEGAFSAVANFNLTYQ
**Q.** For B2, which percent of parent (% of wild-type Sypro Ruby signal) [2] is on record?
**A.** 94

B3: PapA wild-type, P04127 V18AzF (protein)
chain: APTIPQGQGKVTFNGTVFDAPCSISQKSADQSIDFGQLSKSFLEAGGVSKPMDLDIELVNCDITAFKGGNGAKKGTVKLAFTGPIVNGHSDELDTNGGTGTAIVVQGAGKNVVFDGSEGDANTLKDGENVLHYTAVVKKSSAVGAAVTEGAFSAVANFNLTYQ
**Q.** Which percent of parent (% of wild-type Sypro Ruby signal) [3] does the source give for B3 here?
**A.** 5

B4: PapA wild-type, P04127 K50AzF (protein)
chain: APTIPQGQGKVTFNGTVVDAPCSISQKSADQSIDFGQLSKSFLEAGGVSFPMDLDIELVNCDITAFKGGNGAKKGTVKLAFTGPIVNGHSDELDTNGGTGTAIVVQGAGKNVVFDGSEGDANTLKDGENVLHYTAVVKKSSAVGAAVTEGAFSAVANFNLTYQ
**Q.** B4 was tested. Which percent of parent (% of wild-type Sypro Ruby signal) [4] did it give?
**A.** 72

B5: PapA Lys27AzF (natural protein)
chain: APTIPQGQGKVTFNGTVVDAPCSISQFSADQSIDFGQLSKSFLEAGGVSKPMDLDIELVNCDITAFKGGNGAKKGTVKLAFTGPIVNGHSDELDTNGGTGTAIVVQGAGKNVVFDGSEGDANTLKDGENVLHYTAVVKKSSAVGAAVTEGAFSAVANFNLTYQ
modifications: p-azido-L-phenylalanine (AzF) at 27
notes: PapA of uropathogenic E. coli with AzF at residue 27 by amber suppression; The new residue is the unnatural amino acid p-azido-L-phenylalanine; written as F with the modification
**Q.** Does B5 bind [5]?
**A.** binds

B6: PapA wild-type (natural protein)
chain: APTIPQGQGKVTFNGTVVDAPCSISQKSADQSIDFGQLSKSFLEAGGVSKPMDLDIELVNCDITAFKGGNGAKKGTVKLAFTGPIVNGHSDELDTNGGTGTAIVVQGAGKNVVFDGSEGDANTLKDGENVLHYTAVVKKSSAVGAAVTEGAFSAVANFNLTYQ
notes: PapA, major P pilus rod subunit of uropathogenic E. coli; Ala1 is the very N terminus in the model; also called major pilus subunit PapA; P pilus rod subunit
**Q.** Does B6 bind [6]?
**A.** binds

B7: PapA Lys50AzF (natural protein)
chain: APTIPQGQGKVTFNGTVVDAPCSISQKSADQSIDFGQLSKSFLEAGGVSFPMDLDIELVNCDITAFKGGNGAKKGTVKLAFTGPIVNGHSDELDTNGGTGTAIVVQGAGKNVVFDGSEGDANTLKDGENVLHYTAVVKKSSAVGAAVTEGAFSAVANFNLTYQ
modifications: p-azido-L-phenylalanine (AzF) at 50
notes: PapA of uropathogenic E. coli with AzF at residue 50 by amber suppression; The new residue is the unnatural amino acid p-azido-L-phenylalanine; written as F with the modification
**Q.** Does B7 bind [5]?
**A.** binds

B8: PapA Thr76AzF (natural protein)
chain: APTIPQGQGKVTFNGTVVDAPCSISQKSADQSIDFGQLSKSFLEAGGVSKPMDLDIELVNCDITAFKGGNGAKKGFVKLAFTGPIVNGHSDELDTNGGTGTAIVVQGAGKNVVFDGSEGDANTLKDGENVLHYTAVVKKSSAVGAAVTEGAFSAVANFNLTYQ
modifications: p-azido-L-phenylalanine (AzF) at 76
notes: PapA of uropathogenic E. coli with AzF at residue 76 by amber suppression; The new residue is the unnatural amino acid p-azido-L-phenylalanine; written as F with the modification
**Q.** Does B8 bind [5]?
**A.** binds

B9: PapA wild-type, P04127 V155AzF (protein)
chain: APTIPQGQGKVTFNGTVVDAPCSISQKSADQSIDFGQLSKSFLEAGGVSKPMDLDIELVNCDITAFKGGNGAKKGTVKLAFTGPIVNGHSDELDTNGGTGTAIVVQGAGKNVVFDGSEGDANTLKDGENVLHYTAVVKKSSAVGAAVTEGAFSAFANFNLTYQ
**Q.** Which percent of parent (% of wild-type Sypro Ruby signal) [7] does the source give for B9 here?
**A.** 5

B10: PapA wild-type, P04127 T76AzF (protein)
chain: APTIPQGQGKVTFNGTVVDAPCSISQKSADQSIDFGQLSKSFLEAGGVSKPMDLDIELVNCDITAFKGGNGAKKGFVKLAFTGPIVNGHSDELDTNGGTGTAIVVQGAGKNVVFDGSEGDANTLKDGENVLHYTAVVKKSSAVGAAVTEGAFSAVANFNLTYQ
**Q.** B10 was tested. Which percent of parent (% of wild-type Sypro Ruby signal) [8] did it give?
**A.** 96

B11: PapA Gln106AzF (natural protein)
chain: APTIPQGQGKVTFNGTVVDAPCSISQKSADQSIDFGQLSKSFLEAGGVSKPMDLDIELVNCDITAFKGGNGAKKGTVKLAFTGPIVNGHSDELDTNGGTGTAIVVFGAGKNVVFDGSEGDANTLKDGENVLHYTAVVKKSSAVGAAVTEGAFSAVANFNLTYQ
modifications: p-azido-L-phenylalanine (AzF) at 106
notes: PapA of uropathogenic E. coli with AzF at residue 106 by amber suppression; The new residue is the unnatural amino acid p-azido-L-phenylalanine; written as F with the modification
**Q.** Does B11 bind [5]?
**A.** binds

B12: PapA wild-type, P04127 K27AzF (protein)
chain: APTIPQGQGKVTFNGTVVDAPCSISQFSADQSIDFGQLSKSFLEAGGVSKPMDLDIELVNCDITAFKGGNGAKKGTVKLAFTGPIVNGHSDELDTNGGTGTAIVVQGAGKNVVFDGSEGDANTLKDGENVLHYTAVVKKSSAVGAAVTEGAFSAVANFNLTYQ
**Q.** B12 was tested. Which percent of parent (% of wild-type Sypro Ruby signal) [9] did it give?
**A.** 93

B13: PapA Val143AzF (natural protein)
chain: APTIPQGQGKVTFNGTVVDAPCSISQKSADQSIDFGQLSKSFLEAGGVSKPMDLDIELVNCDITAFKGGNGAKKGTVKLAFTGPIVNGHSDELDTNGGTGTAIVVQGAGKNVVFDGSEGDANTLKDGENVLHYTAVVKKSSAFGAAVTEGAFSAVANFNLTYQ
modifications: p-azido-L-phenylalanine (AzF) at 143
notes: PapA of uropathogenic E. coli with AzF at residue 143 by amber suppression; The new residue is the unnatural amino acid p-azido-L-phenylalanine; written as F with the modification
**Q.** Does B13 bind [5]?
**A.** binds

B14: PapA Asp126AzF (natural protein)
chain: APTIPQGQGKVTFNGTVVDAPCSISQKSADQSIDFGQLSKSFLEAGGVSKPMDLDIELVNCDITAFKGGNGAKKGTVKLAFTGPIVNGHSDELDTNGGTGTAIVVQGAGKNVVFDGSEGDANTLKFGENVLHYTAVVKKSSAVGAAVTEGAFSAVANFNLTYQ
modifications: p-azido-L-phenylalanine (AzF) at 126
notes: PapA of uropathogenic E. coli with AzF at residue 126 by amber suppression; The new residue is the unnatural amino acid p-azido-L-phenylalanine; written as F with the modification
**Q.** Does B14 bind [6]?
**A.** binds

B15: PapA Val155AzF (natural protein)
chain: APTIPQGQGKVTFNGTVVDAPCSISQKSADQSIDFGQLSKSFLEAGGVSKPMDLDIELVNCDITAFKGGNGAKKGTVKLAFTGPIVNGHSDELDTNGGTGTAIVVQGAGKNVVFDGSEGDANTLKDGENVLHYTAVVKKSSAVGAAVTEGAFSAFANFNLTYQ
modifications: p-azido-L-phenylalanine (AzF) at 155
notes: PapA of uropathogenic E. coli with AzF at residue 155 by amber suppression; The new residue is the unnatural amino acid p-azido-L-phenylalanine; written as F with the modification
**Q.** Does B15 bind [6]?
**A.** binds

B16: PapA Asn96AzF (natural protein)
chain: APTIPQGQGKVTFNGTVVDAPCSISQKSADQSIDFGQLSKSFLEAGGVSKPMDLDIELVNCDITAFKGGNGAKKGTVKLAFTGPIVNGHSDELDTFGGTGTAIVVQGAGKNVVFDGSEGDANTLKDGENVLHYTAVVKKSSAVGAAVTEGAFSAVANFNLTYQ
modifications: p-azido-L-phenylalanine (AzF) at 96
notes: PapA of uropathogenic E. coli with AzF at residue 96 by amber suppression; The new residue is the unnatural amino acid p-azido-L-phenylalanine; written as F with the modification
**Q.** Does B16 bind [6]?
**A.** binds

B17: PapA Val18AzF (natural protein)
chain: APTIPQGQGKVTFNGTVFDAPCSISQKSADQSIDFGQLSKSFLEAGGVSKPMDLDIELVNCDITAFKGGNGAKKGTVKLAFTGPIVNGHSDELDTNGGTGTAIVVQGAGKNVVFDGSEGDANTLKDGENVLHYTAVVKKSSAVGAAVTEGAFSAVANFNLTYQ
modifications: p-azido-L-phenylalanine (AzF) at 18
notes: PapA of uropathogenic E. coli with AzF at residue 18 by amber suppression; The new residue is the unnatural amino acid p-azido-L-phenylalanine; written as F with the modification; also called Val18 mutant
**Q.** For B17, which “stoichiometry N” value [10] is on record?
**A.** 2 and 3
